# Test results taken from patent US20240279281A1, “Peptide Inhibitors of Interleukin-23 Receptor” (Janssen Pharmaceutica NV, priority 2023, published 2024).
# Starred links: 1 amine or outer side, 2 acyl side, 3 side chain; linkers in the order of their positions; H or OH if unused. Positions of bridges follow the written chain, without caps; N, C: chain ends. Non-standard residues stand in square brackets, D forms with d. No end group written: not given here. N,N‑dimethylasparagine = N,N-dimethylasparagine, CN(C)C(=O)C[C@H](N[*:1])C(=O)[*:2]; 2Nal(6-OH) = N[C@@H](Cc1ccc2cc(O)ccc2c1)C(=O)O; Trp(7-Me) = Cc1cccc2c(C[C@H](N)C(=O)O)c[nH]c12; d(hLys(Me3)) = C[N+](C)(C)CCCCC[C@@H](N)C(=O)O; AEF = NCCOc1ccc(C[C@H](N)C(=O)O)cc1; 3Pal = N[C@@H](Cc1cccnc1)C(=O)O; Pen = CC(C)(S)[C@H](N)C(=O)O; lipid = not defined here; Thp = NC1(C(=O)O)CCOCC1; Sar = CNCC(=O)O
# T1: interleukin-23 receptor (IL-23R), Q5VWK5
# T1 chain: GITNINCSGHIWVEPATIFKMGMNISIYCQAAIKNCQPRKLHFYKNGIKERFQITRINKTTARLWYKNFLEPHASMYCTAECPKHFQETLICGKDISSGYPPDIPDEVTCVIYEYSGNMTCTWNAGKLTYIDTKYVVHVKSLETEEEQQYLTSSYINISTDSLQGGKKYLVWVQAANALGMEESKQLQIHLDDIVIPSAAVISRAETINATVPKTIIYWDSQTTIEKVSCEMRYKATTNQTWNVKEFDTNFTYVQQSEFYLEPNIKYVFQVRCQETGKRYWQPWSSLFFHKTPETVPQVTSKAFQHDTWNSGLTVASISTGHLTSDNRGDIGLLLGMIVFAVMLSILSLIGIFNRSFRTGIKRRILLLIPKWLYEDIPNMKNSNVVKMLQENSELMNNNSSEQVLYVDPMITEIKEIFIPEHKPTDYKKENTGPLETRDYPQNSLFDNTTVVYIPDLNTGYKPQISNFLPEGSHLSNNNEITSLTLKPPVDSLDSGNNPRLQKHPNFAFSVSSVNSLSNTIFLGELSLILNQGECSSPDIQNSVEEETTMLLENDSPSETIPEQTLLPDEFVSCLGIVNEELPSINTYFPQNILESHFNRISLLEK
# B1: SEQ ID NO: 218 (peptide)
# peptide: R[Pen]NT[Trp(7-Me)]K(Ac)[Pen][2‑amino‑3‑(4-(2-aminoethoxy)phenyl)propanoic acid][2‑amino‑3‑(6-hydroxynaphthalen-2-yl)propanoic acid][Thp]EN[3Pal][Sar]K(lipid)
# modifications: disulfide 2-7 (inferred); ends not checked; also: Lys15 lipidated, lipid not given here
# B2: SEQ ID NO: 229 (peptide)
# peptide: K(lipid)[Pen]NT[Trp(7-Me)]K(Ac)[Pen][AEF][2Nal(6-OH)][Thp]EN[3Pal][Sar]
# modifications: disulfide 2-7 (inferred); ends not checked; also: Lys1 lipidated, lipid not given here
# B3: SEQ ID NO: 217 (peptide)
# peptide: R[Pen]NT[Trp(7-Me)]K(Ac)[Pen][2‑amino‑3‑(4-(2-aminoethoxy)phenyl)propanoic acid][2‑amino‑3‑(6-hydroxynaphthalen-2-yl)propanoic acid][Thp]EN[3Pal][Sar]
# modifications: disulfide 2-7 (inferred); ends not checked
# B4: SEQ ID NO: 254 (peptide)
# peptide: R[Pen]NT[Trp(7-Me)]K(Ac)[Pen][2‑amino‑3‑(4-(2-aminoethoxy)phenyl)propanoic acid][2‑amino‑3‑(6-hydroxynaphthalen-2-yl)propanoic acid][Thp]K(Ac)N[3Pal][Sar]K
# modifications: disulfide 2-7 (inferred); not fully specified (residue 15); ends not checked; also: K15: lipidated lysine, lipid not given here
# B5: SEQ ID NO: 220 (peptide)
# peptide: R[Pen]NT[Trp(7-Me)]K(Ac)[Pen][2‑amino‑3‑(4-(2-aminoethoxy)phenyl)propanoic acid][2‑amino‑3‑(6-hydroxynaphthalen-2-yl)propanoic acid][Thp]K(Ac)N[3Pal][Sar]
# modifications: disulfide 2-7 (inferred); ends not checked
# B6: SEQ ID NO: 263 (peptide)
# peptide: [(R)‑3‑carboxy‑2‑(4-(((R)-5-carboxy-5-hydrazineylpentyl)amino)-4-oxobutanamido)‑N,N,N‑trimethylpropan‑1‑aminium][Pen]NT[Trp(7-Me)]K(Ac)[Pen][2‑amino‑3‑(4-(2-aminoethoxy)phenyl)propanoic acid][2‑amino‑3‑(6-hydroxynaphthalen-2-yl)propanoic acid][Thp]EN[3Pal][Sar]
# modifications: disulfide 2-7 (inferred); ends not checked
# B7: SEQ ID NO: 266 (peptide)
# peptide: [(R)‑3‑carboxy‑2‑(4-(((R)-5-carboxy-5-hydrazineylpentyl)amino)-4-oxobutanamido)‑N,N,N‑trimethylpropan‑1‑aminium][Pen]NT[Trp(7-Me)]K(Ac)[Pen][2‑amino‑3‑(4-(2-aminoethoxy)phenyl)propanoic acid][2‑amino‑3‑(6-hydroxynaphthalen-2-yl)propanoic acid][Thp]EN[3Pal][Sar]
# modifications: disulfide 2-7 (inferred); ends not checked
# B8: SEQ ID NO: 256 (peptide)
# peptide: [Pen]NT[Trp(7-Me)]K(Ac)[Pen][2‑amino‑3‑(4-(2-aminoethoxy)phenyl)propanoic acid][2‑amino‑3‑(6-hydroxynaphthalen-2-yl)propanoic acid][Thp]K(Ac)N[3Pal][Sar]K
# modifications: disulfide 1-6 (inferred); not fully specified (residue 14); ends not checked; also: K14: lipidated lysine, lipid not given here
# B9: SEQ ID NO: 264 (peptide)
# peptide: [(R)‑3‑carboxy‑2‑(4-(((R)-5-carboxy-5-hydrazineylpentyl)amino)-4-oxobutanamido)‑N,N,N‑trimethylpropan‑1‑aminium][Pen]NT[Trp(7-Me)]K(Ac)[Pen][2‑amino‑3‑(4-(2-aminoethoxy)phenyl)propanoic acid][2‑amino‑3‑(6-hydroxynaphthalen-2-yl)propanoic acid][Thp]EN[3Pal][Sar]
# modifications: disulfide 2-7 (inferred); ends not checked
# B10: SEQ ID NO: 221 (peptide)
# peptide: R[Pen]NT[Trp(7-Me)]K(Ac)[Pen][2‑amino‑3‑(4-(2-aminoethoxy)phenyl)propanoic acid][2‑amino‑3‑(6-hydroxynaphthalen-2-yl)propanoic acid][Thp]K(Ac)N[3Pal][Sar]K(lipid)
# modifications: disulfide 2-7 (inferred); ends not checked; also: Lys15 lipidated, lipid not given here
# B11: SEQ ID NO: 244 (peptide)
# peptide: R[Pen]NT[Trp(7-Me)]K(Ac)[Pen][AEF][2Nal(6-OH)][Thp]EN[3Pal][Sar]K(lipid)
# modifications: disulfide 2-7 (inferred); ends not checked; also: Lys15 lipidated, lipid not given here
# B12: SEQ ID NO: 255 (peptide)
# peptide: R[Pen]NT[Trp(7-Me)]K(Ac)[Pen][2‑amino‑3‑(4-(2-aminoethoxy)phenyl)propanoic acid][2‑amino‑3‑(6-hydroxynaphthalen-2-yl)propanoic acid][Thp]K(Ac)N[3Pal][Sar]K
# modifications: disulfide 2-7 (inferred); not fully specified (residue 15); ends not checked; also: K15: lipidated lysine, lipid not given here
# B13: SEQ ID NO: 241 (peptide)
# peptide: [Pen]NT[Trp(7-Me)]K(Ac)[Pen][AEF][2Nal(6-OH)][Thp]K(Ac)N[3Pal][Sar]K(lipid)
# modifications: disulfide 1-6 (inferred); ends not checked; also: Lys14 lipidated, lipid not given here
# B14: SEQ ID NO: 239 (peptide)
# peptide: [d(hLys(Me3))][Pen][N,N‑dimethylasparagine]T[Trp(7-Me)]K(lipid)[Pen][AEF][2Nal(6-OH)][Thp]EN[3Pal][Sar]
# modifications: disulfide 2-7 (inferred); ends not checked; also: Lys6 lipidated, lipid not given here
# B15: SEQ ID NO: 265 (peptide)
# peptide: [(R)‑3‑carboxy‑2‑(4-(((R)-5-carboxy-5-hydrazineylpentyl)amino)-4-oxobutanamido)‑N,N,N‑trimethylpropan‑1‑aminium][Pen]NT[Trp(7-Me)]K(Ac)[Pen][2‑amino‑3‑(4-(2-aminoethoxy)phenyl)propanoic acid][2‑amino‑3‑(6-hydroxynaphthalen-2-yl)propanoic acid][Thp]EN[3Pal][Sar]
# modifications: disulfide 2-7 (inferred); ends not checked
# Molecular target: T1, interleukin-23 receptor (IL-23R), Q5VWK5
# Test: cell-based or functional assay
row,Binder,PBMC pSTAT3 IC50
1,B1,> 1 nM
2,B2,< 1 nM
3,B3,< 0.1 nM
4,B4,< 1 nM
5,B5,< 1 nM
6,B6,< 1 nM
7,B7,< 0.1 nM
8,B8,< 1 nM
9,B9,< 10 pM
10,B10,> 1 nM
11,B11,< 1 nM
12,B12,< 1 nM
13,B13,< 1 nM
14,B14,< 1 nM
15,B15,< 1 nM
